Among the data in the supplement of paper PMC10567573 are protein stability index values, retold here.

The nature of the series: protein stability index of a GFP-peptide fusion (GPS, HEK-293T) (PSI 1-6); higher = more stable. The following applies: c terminus: a fixed tail appended.

± gives the standard deviation.
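Note: 24-mer peptide tiles fused after GFP, lentivirally expressed, FACS-sorted into six equal bins by GFP/DsRed ratio, decoded by Illumina sequencing, PSI is the read-weighted mean bin number.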

Regarding KPTVFIGVPQIWEKIHEMVKKNSA [ACSBG2], the protein stability index is, setting by setting: (treatment: DMSO) 2.75 ± 0.34; (treatment: MLN4924 1 uM, 8 h) 2.47 ± 0.81.
For PGSMSEVQELCKQLHAKIDAAEEE [TNNI2] the same measures were 5.38 ± 0.27 and 5.36 ± 0.11.
For HNQIAIYAHQPRTADEIPMEPGDI [FUT8] the same measures were 4.6 ± 0.19 and 4.52 ± 0.18.
For EEEEDDLSELPPLEDMGQPPAEEA [FKBP8] the same measures were 5.63 ± 0.2 and 5.5 ± 0.38.
On to NPAPAAPCPLGEPKTQACSGSESP [MYCL], for which the protein stability index amounted to 5.57 ± 0.23 (treatment: DMSO) and 5.63 ± 0.15 (treatment: MLN4924 1 uM, 8 h).
For PSRAKPPTEGAGSPAKASQASKLR [FBF1] the same measures were 5.16 ± 0.28 and 5.2 ± 0.2.
On to HAGEHLLLGATKRSMVFKDVLLLG [HNF4A], for which the protein stability index runs as follows: (treatment: DMSO) 2.26 ± 0.33; (treatment: MLN4924 1 uM, 8 h) 2.35 ± 0.4.
For LRFLYSDEVQIGPETVMTTLYTAK [BTBD1] the same measures were 2.48 ± 0.38 and 1.99 ± 0.24.
For PCVRPGVSGSPVTQNHAASALPTG [FBF1] the same measures were 4.45 ± 0.26 and 4.5 ± 0.06.
For VDWDEEYPPQMGEEYSQIIYSTKL [BTBD10] the same measures were 3.49 ± 0.15 and 3.55 ± 0.41.
With LPIFTPAKMGATKEEREDTPIQLQ [TCAP], the protein stability index runs as follows: (treatment: DMSO) 4.7 ± 0.089; (treatment: MLN4924 1 uM, 8 h) 4.72 ± 0.088.
The corresponding values for ALLIVDSATALYRTDYSGRGELSA [RAD51] are 2.17 ± 0.33 and 2.27 ± 0.42.
The corresponding values for PMPVSQECFETLRGDERILSILRH [CHGA] are 3.29 ± 0.23 and 3.02 ± 0.46.
The corresponding values for ELLCCTNVSTKEGIHLALVELLKN [INTS4] are 2.19 ± 0.74 and 2.4 ± 0.41.
SEIPRGVRVALDYEAGQVTLHNAQ [TRIM15]: the protein stability index by setting is: (treatment: DMSO) 4.45 ± 0.35; (treatment: MLN4924 1 uM, 8 h) 4.57 ± 0.11.
Regarding HYFHSISYKIEEISPSTLKNSLFP [KCNK9], the protein stability index reads like this: (treatment: DMSO) 2.17 ± 0.28; (treatment: MLN4924 1 uM, 8 h) 2.18 ± 0.18.
For LGMVTPVNDLRGSDSIAYDKGEKL [ADD1], the protein stability index runs as follows: (treatment: DMSO) 4.62 ± 0.3; (treatment: MLN4924 1 uM, 8 h) 4.9 ± 0.089.
For GCKGFFRRSMKRKALFTCPFNGDC [VDR] the same measures were 2.47 ± 0.43 and 2.21 ± 0.14.
The corresponding values for PDGVWAYNRGEHPIFVNSPTLDAP [SMAD6] are 3.56 ± 0.34 and 3.62 ± 0.16.
For GVRESETEQGFGEDLEDLGAVAPP [NFE2L1] the same measures were 5.763 ± 0.026 and 5.9 ± 0.1.
In the case of YFQSVTSNRWLMVKIFLILIVFFI [STX5], the protein stability index is, setting by setting: (treatment: DMSO) 2.85 ± 0.6; (treatment: MLN4924 1 uM, 8 h) 2.93 ± 0.49.
The corresponding values for LIQRKKVHVFGDELSLVTLFRCIQ [TNFSF13B] are 2.25 ± 0.67 and 2.04 ± 0.34.
For GDVMFTGTADGRVVKLENGEIETI [APMAP] the same measures were 4.73 ± 0.51 and 5.06 ± 0.29.
As to DSRRIFVGQDNGAVMEFHVSEDFN [WDFY1], the protein stability index (treatment: DMSO) is 4.07 ± 0.32 and the protein stability index (treatment: MLN4924 1 uM, 8 h) came to 4.22 ± 0.11.
For ICIMDAENITTVSVIKDHHTRSIT [WDR88] the same measures were 2.34 ± 0.31 and 2.18 ± 0.24.
For LFYFFLYQYCSIHCSDRKQVRNIA [CSTF3] the same measures were 2.92 ± 0.83 and 2.61 ± 0.33.
For SKTEELNREVATNSELVQSGKSEI [KRT17] the same measures were 5.34 ± 0.22 and 5.06 ± 0.1.
For VTHREGAPPLPGAESFPGSQVMGS [PLEKHN1], the protein stability index reads like this: (treatment: DMSO) 4.63 ± 0.14; (treatment: MLN4924 1 uM, 8 h) 4.51 ± 0.11.
Regarding DLLHGPECRSSVTSDSEGAHVNTL [PHTF1], the protein stability index was 4.33 ± 0.14 (treatment: DMSO) and 4.61 ± 0.35 (treatment: MLN4924 1 uM, 8 h).
For VGAAYASLRRRGASAAARLGCNRQ [TRIM14] the same measures were 3.36 ± 0.17 and 4.09 ± 0.39.
In the case of DLRSGTLYSLTLYGLRGPHKADSI [TNXB], the protein stability index stood at 2.16 ± 0.48 (treatment: DMSO) and 1.95 ± 0.27 (treatment: MLN4924 1 uM, 8 h).
With TSTPPPASVINNMLAEIFCQTGGV [ZBED1], the protein stability index (treatment: DMSO) worked out at 2.84 ± 0.076 and the protein stability index (treatment: MLN4924 1 uM, 8 h) was 2.73 ± 0.23.
For RVLFIKDVIGDEICCWSFYGQGRK [KCTD10] the same measures were 1.89 ± 0.51 and 2.38 ± 0.23.
For HYANLNGLYGSTVDHQGVSWYHWK [TNXB] the same measures were 2.5 ± 0.14 and 2.8 ± 0.66.
The corresponding values for GHRPPPARSGHRCVADNTNLYVFG [KLHDC10] are 2.3 ± 0.33 and 2.44 ± 0.24.
Consider GKKQEYLENRIQREIALAKKHGTQ [CHMP4C], for which the protein stability index (treatment: DMSO) is 3.92 ± 0.35 and the protein stability index (treatment: MLN4924 1 uM, 8 h) was 4.13 ± 0.14.
For RIYSYQMALTPVVVTLWYRAPEVL [CDK4], the protein stability index was determined as 2.98 ± 0.12 (treatment: DMSO) and 2.77 ± 0.47 (treatment: MLN4924 1 uM, 8 h).
Consider GNFPTMEVKPKDIIHVVKDQLIGQ [TENT5D], for which the protein stability index reads like this: (treatment: DMSO) 4.08 ± 0.33; (treatment: MLN4924 1 uM, 8 h) 3.98 ± 0.35.
For HYGGVVSLIPLILDLMKEWIAHSE [SPACA9] the same measures were 3.02 ± 0.46 and 2.23 ± 0.46.
The corresponding values for RQITQVYGFYDECLRKYGNANVWK [PPP2CA] are 2.19 ± 0.33 and 2.33 ± 0.26.
The corresponding values for CLPPEPSPDDPESVKIIFKLPNDS [FAF2] are 4.76 ± 0.17 and 4.82 ± 0.13.
Regarding RRSTTDLRGTQFDYERGKGESTED [ZSWIM9], the protein stability index runs as follows: (treatment: DMSO) 5.57 ± 0.17; (treatment: MLN4924 1 uM, 8 h) 5.53 ± 0.15.
For IELEGISVMVMREILDYIFSGQIR [GAN] the same measures were 3.37 ± 0.23 and 2.86 ± 0.49.
The corresponding values for REDITEPAICALRHLTSRHQEAEM [CTNNB1] are 4.58 ± 0.41 and 4.4 ± 0.43.
The corresponding values for RKGELVTASKAIIEKEYQPHVIVS [ADD1] are 3.62 ± 0.18 and 3.97 ± 0.21.
Regarding KARSNSTLSKSEYMVIEEGGMNHS [KCNA3], the protein stability index is, setting by setting: (treatment: DMSO) 4.57 ± 0.38; (treatment: MLN4924 1 uM, 8 h) 4.33 ± 0.15.
For the sequence PEEGQQPWLCGESFTLADVSLAVT [GDAP1], the protein stability index (treatment: DMSO) is 3.27 ± 0.23 and the protein stability index (treatment: MLN4924 1 uM, 8 h) was found to be 3.4 ± 0.21.
The corresponding values for AMVTADSKYCYGPQGSRSPYIPPH [FKBP8] are 3.27 ± 0.42 and 3.13 ± 0.26.
For RYRGLGLLASVPSNPNGNGGFMGY [CRY1], the protein stability index amounted to 2.53 ± 0.14 (treatment: DMSO) and 2.91 ± 0.19 (treatment: MLN4924 1 uM, 8 h).
With APYAAAAAAQSYPGYLPYSPEPPS [IRX6], the protein stability index (treatment: DMSO) worked out at 4.06 ± 0.14 and the protein stability index (treatment: MLN4924 1 uM, 8 h) came out at 4.2 ± 0.15.
The corresponding values for LICEGLYPASIVDEPTFKVLLKTA [ZBED1] are 2.25 ± 0.28 and 2.31 ± 0.24.
For RAKEEERLNKLRLESEGSPETLTN [HACD3] the same measures were 5.38 ± 0.23 and 5.28 ± 0.26.
For DYFERNWEPRRDMWVRFRAFEAAR [ZSWIM9] the same measures were 2.56 ± 0.12 and 2.66 ± 0.32.
